test: label from the status in PepcDB records

Sequence | protein production
MTQPLRQYREKRDFRATAEPAGAARRPRAAARASEGLSFVIQRHQARRLHYDFRLEIDGVLVSWAVPKGPSRDPSVKRLAVHVEDHPLEYGGFSGDIPKGQYGAGHVDIWDSGVWIPRGDPRQGLRRGKLHFALRGRRLAGDWVLVRMSGEQDQWLLRKEDDEAAVPGDDAERAPATPPPAPEHAPAATPRGRRAAMPHTLAPQLATLVDSPPHGPGWSYEVKYDGYRILAACSAGGVRLVSRGNEDWQARMAPLARALGALKLGRGWLDGEVVVLDERGVADFQLLQNALDGQAEGLVFVAFDLPFWNGEDLRALPLQARQERLEDLLREVPEDAPLMLTQRLPVADDTEGKAAWNEACRLSLEGLICKRLDAPYRSGRSQGWLKLKCRPRQEFVIGGYTEPAGARRHLGALLVGLRQGRQLRYAGRVGTGFGAATLRTLGQRLAALRQDAKPFSGDVPRGRGDAAIHWVSPELVAEVNYAGITRDGLLRQASFAGLRADKPASEVRGEVAARPPAAKAATPSRRAGDGRAEVAGVRISHPDRLAYREPDYTKLQLAEYYAAIGPHILPHLRQRRVALLRCPDGAGTTCFFQKHLSQSLPAGVRRDGGHLVIESLPGLIALVQYGAIEFHTWGADTRHPDTPDRITLDLDPGPGVAWPAIVEGAQMARLLMQEVGLEPFLKTTGGKGLHLVAPLRPTQPWDTVKDFARALARQLAVALPDRFTANMAKARRERRIFVDYLRNGNGATAVAAFSARARDGAPVSMPLSWDALDAGDDLRGARWNIANALEQARRKPDPWADYAASRRTLGSRMQARLPRD | failed
MTQPNIIMTRVDERLIHGQGQLWVKFLNCNTVIVANDAVSEDKIQQSLMKTVIPSSIAIRFFSIQKVIDIIHKASPAQSIFIVVKDLQDAKLLVEGGVPITEINIGNIHKTDDKVAITQFISLGETDKSAIRCLAHDHHVVFNTKTTPAGNSASDVDILDYI | not failed
MTQPVPVHYTLRPVSPEAHLFEATVTISHPAKDGQVFFLPAWIPGSYMIREFSKHIVGMAASAGGKPVALRQLEKNRWQAAPAKGALTLRYQVYAFDLSVRGAYLDGERGFFNGTSVFLAAEGYEGEACTVDIHAPEGKAYAEWKVATSLPAEDVKKKTGFGRYRAADYDELIDHPVEMGDFKKVSFKACGVPHEFVVSGRFQGELKRLAEDTRKICECQIKLFGEPAPFDRYVFMLFVGKDIYGGLEHRASTALVANRDDLPAPGAAEIGDGYLKLLGLISHEYFHSWNVKRMKPAAFTPYDLNREGMTRLLWAFEGITSYYDDLTLVRCGLIDEKRYLGLLAETITGVQRGAGRLKQTLEQSSFEAWTKYYRQDENSPNSIVSYYTKGSLAALALDLLIRRDSKGKQSLDDVMRALWAKWLADGKGLEEGEWEKIAIETTGLKLKPFFDLALRSTGELPLAELLKSQGVELKFEAAQGASDRGGVVDAFAGKPAPLTLGVKTAADAAGVKLLQVLDGGAAQAAGLSGGDVVVAVDKLRAYDLDKQIARFAAGDKIKLHAFRRDELMTFEVAPQAAPEDTCRLKLDAGGGKWIAGRLEHHHHHH | failed
MTQQHLFPSTKAKSYKLFCFYLLILTSLLHPATAGAADITQQLHRPVNSSMGRQSRDEADSLLRVAEQQYAAGCADKAIDSGLQALDIYHLIGDLRAKGLTYNLLAKAYIELGRFKEGEDALRRRLAIARDTKDFQSQIFALNNLGTLLLQAGEPKAAGETIQEAYTIADNVKNIDGEGLSLSNLGLVSSRLGDYNKAIKLYETALIFRRRTGDAPGEMNTLNNLGDAYLAAGNYPDTIGTYGAAMRIAKTLGDRSNQLRAIDGLVTAHSAVGRYERAFDLLQQRLTIAQELQNLREELKSFESYAKLYEQLGNYPTARNFYERAIIISQTLEDNKQEVFLRDRLTQMLRSQKSILK | failed
MTQTTVPVIFDLDGTLVDPAGGITGGISAALREMDLPVPEQAVLNSMVGPKLSDSLLHLADVPGELVDETIERYRRHYKETGIGQSKLYPGVFDLLEYFAETGRPVAVATQKPQSIARLVLEHHKIADFFVSIRGAADDESLKANTASGKVEIVGAALKDLHSQPAVMVGDRHQDVAGALANGLDCIGVSWGFAPDGELEEAGAVAVVSTALELRSKIEELDAVRAAALSEVQNDGSL | failed
MTRACNLYVFKNKYVSFNLLDSPNSNPKLLKISLPFNFMDEFEGLLKAVGSAPWYKLIGMVPKLQGDRVVVEMEIDRSKHLQALGTTHGGAIASVLDSAIGLNVNREVVKMGKTAVTAQLNIHYIRPVTEGKIVGVGMPMHIGSKVTVGYGEVRNEEGELVAAGTATFYIIDRRFRDLEHHHHHH | failed
MTRAQPEPVQVVKQRRDAALRALVSGVPYITYLGIQFDRRGDELTAVLPFDEKLIGNPMLPAIHGGVTAAFLEVASIIELSWSVLWHEMEQGRLDPDQIEARLPRLPKTIDFTVDYLRSGLPRDAYARARVNRSGRRYASVHVEAWQDNRLRPFAQATGHFLMPARNDLEHHHHHH | not failed
MTRHNEIIKCAEKYQLHIQPQTISLNESGLDFQVAFGKDKHGVEWVLRLPRRPDVYKRTKPEKQTVDFLQKNVSFEIPKWKVHAKDLIAYPKLTGKPAATIDPEIQNYVWEIEHKPLPENFINTLAETLVDLHNIPEENINVQHINIKTIQEIKNDFQRRMNKVKETYGVSDELWNRWKQWLENDELWPRHATMIHGDLHPGHIMVDNQANVTGLIDWTEATHSDPSMDFIGHHRVFDDEGLEQLITAYGKAGGEIWPRMKEHIIELNAVFPMFIAEFAMESGESAYETMALKELGMKE | failed
MTRLTRFAVAPLHSMTRRLADVASARVAPDLVVTGARVLSTYSERIHANREVWITGGRVAAVKPAGTARKAWSGVALYDAAGAIIAPGLVDPHIHIESSMVTACAYAEAALLNGTTTIFCDSHEIGNVMDVAGVEAMLEDARQAPLSIFLTVPSTVPATSAELETAGGDLTPDKIAGLFDRWPEAVALGEKMDFVPVTMGDERSHAILAAALKRGRPVSGHVYGREFVAAYAASGVTDTHEAIDRDIADDLLDAGVWVFLRGGPPTTPWHSLPQAIRTITELGASHKRTAVCTDDRDADDLLLFGLDWVVREAVKAGMSPEQAWSMGSLHGATRFGMEGDIGGLGGGRRADLVLMDDQLKPQCTWYGGELVVEHGKITPRLDQALSQRYQYPKAAYATVKLPEKVKLTPELPAKACTVNAIKTALPGITLIHEKVAIEPAKDWPTLFARYGLCFVTVVERHGKSAGNVAYGLLKDFGLKRGAVASSVGHDSHNIIVAGTNEPDMQVAIAAIKEHQGAVCVVADGKVRALVPLPIAGLLSDKRVTEVAEEVKVLKKEWAEAGCTIPYMGFNLIPLSVIPEIRITDKGLVLVPQMELAPLFE | failed
MTRPIFYDPTGRRSLLAKRSLAVVFLAVILAALAFATTLVAVPRQRALSLPQPHFEAASLHRGHGLSRLRSWLPRLHLQRSQEALAIGFYQPRSDASFQSLSRHGNQLDWVVPALLNVAGPEHRLAVSNDPRFDSFVAAGHHHYKVLPMVQNVGGDGWDGANVARILENATERHALERQLADYVARRGDAGLVLDFEDLPATAMRPYVAFLRETNALLPAGAQLAVTAPAGEDDWPIAALGRAADKVILMAYDEHWQNGAAGPIASQTWFTNEVEKSARALPADRLVIALGSYGYDWHQGGTDALSLSDAWLAAHDSHAPIIFDKASGNAGFAYEQDGVSHTVWMLDAATDWNEMLAVQRLGIGNLALWRLGTEDPGFWNDLAALRSGKAPDLSRLVSEGGNDVEGTGEILRITATPVAGSRTVAFGDQHLIRDERYGDLPTPFVVRRTGAANPKLLALTFDDGPDPKWTPKVLSTLEAAHVPATFFVIGENALVRPDLLRRMVADGDEIGNHTYTHPNLAGSSEAETRLEINATQRLVQAYTGRSMTLFRAPYFGDAEPTTADELQPALRAQQAGYTIVGLHVDPNDWQNPGTDEIVRQVVNQIHNATEQSSSNVILLHDGGGDRSQTVAALPRIVAVLRAEGYSFVTASQLVGIPPQAAMPRLSSSDLAAVRVDVAAFLALDGLVTLFSWLFFVAIALGIARAVIMAGLAWWQSRSPRAEPPAFEPTVSVIIPAWNEERVIAASVERVLASDYPALQVIVADDGSKDATSAVVARHFGHDPRVTLLTLANGGKAAALNRALRHATGEVVIALDADTQFEPLTIRRLARWFADPRIGAVAGDARVGNRVNLVTRWQAVEYITAQNLERRALAGFDAMTVVPGAVGAWRRAALDSVGGYPENTLAEDQDLTIAIQRKGWRVTYDPRAVAWTEAPQTFRALARQRYRWAFGTLQCLWKHRKVITSRKPAGLGLVGLPQAWLFQIAFAAISPLIDGALIASIISTVVRVVQHGWAQTQGDLGRMAIYWSLFTAIDVICGWIAYRLDDKRPPYPAHLLVAQRIVYRQIMYWVVLRALASAIGGWIVGWGKLERTGTVSPAPERA | failed
MTRPMRLAAVAAACLTMALAGCQTNGAGSTDGVVRTNEPSKGDVTSFGDAFDGLKTVSDVEYYASDQAVAEATNQFRAENYGNAGALFFKATQLAPNDGGAWMGLAASCDRIRRFDLADRAYGKAFKLVGASAEYYNNVGYSYLLRGKLQDARTSFLKAYELAPNDPTVANNLKLLSSSVQNIER | failed
MTRRGWILFVALCVLWGIPYLLIKVAVRDLTPASLVFLRTATGAVLLLPFVLVRGNLRPVLARWRPIALFTFGEMAVPWLLLADAERHVTSSLAGLVIAATPLVGALASRLSAGHEPLGARRMSGLAVGLAGVVALLGLDLGRGDARAVAELAVVVIGYALAPRIVARRLSDLPALDVVAVSLAMCALAYAPFGIAQLPAALPPAEALGAVAGLGVLCTALAFTLFFQLIAEVGPVRATVVAYVNPAVAVAAGVTLLGEPFTVGTAVGFALILGGSWLATSGAAGRARTPAPASAPAAPGAVAPAAAERAG | failed
MTRRVKTGIPGVDEILHGGIPERNVVLLSGGPGTGKTIFSQQFLWNGLKMGEPGIYVALEEHPVQVRQNMAQFGWDVKPYEEKGMFAMVDAFTAGIGKSKEYEKYIVHDLTDIREFIEVLRQAIRDINAKRVVVDSVTTLYINKPAMARSIILQLKRVLAGTGCTSIFVSQVSVGERGFGGPGVEHGVDGIIRLDLDEIDGELKRSLIVWKMRGTSHSMRRHPFDITDKGIIVYPDKVLKRGKVLEL | not failed
MTRSQNVLAGLLLAGLLAPHAVSAEGYQTPPPELAALVDAPRTPLQSLNPQGDAVLQTHRPGLPAIADVAQPELKLAGLRLNPRMRAASRFDFGSALTLLDVKSGKSRPVTGLPARPRIADNAWSPDGKQVALSLWGDRGVELWLLDAASARVRRLGDFHLNASSGRGFAWMGAQLLVKLLPAGQGPAPEKPSTPTGPNIQQSAGGALSQTRTYPDLLKTPYDADLLDYELNSQLALVDLSGRTKLIGKPDRYLSVQASPDRRYLLATKLQRPYSTLVPLNRFPRRIEVLNLQGDSVHLVAQRPLLERMPSGNDAVETGPREVQWRTDAPATLFWAEAQDGGDPSTPAKARDALYLLPAPFQQPPLKLQELASRFAGIQWGRGDLALVSEYWWKTRDLKVWRVRPAEPDHAPTLLNRRSSEDRYADPGSPAMVSNADGLPVLQTSPDGGSLYLLGEGASPEGDRPFIDQLNLADNKATRLWRSQAPWYEAPMAVLDGGKTALLSREQADAPPNLYLKTLGQGGGLKQLTFFPHPTPQLKNVQKRQLRYKRADGIDLTATLYLPPGYDAKRDGPLPMLMWAYPAEFKSADAASQVTDSPYRFNRVGYWGPEALLARGYVVLDDPSMPIVGAGKQEPNDTYLPQLKMDAQAAVDEVVRLGVADRDRIAIGGHSYGAFMTANLLAHTRLFRAGIARSGAYNRTLTPFGFQSEERDFWQAKDVYQAMSPFNYAEQIKDALLLIHGEADNNPGTFPIQSERMYQALQGLGGTVRLAMLPAESHGYRARESILHMLWEEDRWLDQFVKRAKPRAQGTAAR | failed

Reference: a protein production outcome set (Wang et al. 2014)
